Experimental findings from article PMC6996132 (Cell Reports, 2020) are described below.

The series deals with the molecule itself. As to the kind of experiment: amyloid aggregation.

Substitutions are numbered along the chain they refer to. Numbers in names are those of the source.

B1: His-SUMO-hnRNPDL isoform 2 D259N (natural protein, human)
chain: MEDMNEYSNIEEFAEGSKINASKNQQDDGKMFIGGLSWDTSKKDLTEYLSRFGEVVDCTIKTDPVTGRSRGFGFVLFKDAASVDKVLELKEHKLDGKLIDPKRAKALKGKEPPKKVFVGGLSPDTSEEQIKEYFGAFGEIENIELPMDTKTNERRGFCFITYTDEEPVKKLLESRYHQIGSGKCEIKVAQPKEVYRQQQQQQKGGRGAAAGGRGGTRGRGRGQGQNWNQGFNNYYDQGYGNYNSAYGGDQNYSGYGGYNYTGYNYGNYGYGQGYADYSGQQSTYGKASRGGGNHQNNYQPY
In the case of B1, the binding result was “binds”.

B2: His-SUMO-hnRNPDL isoform 2 D259H (natural protein, human)
chain: B1 chain with N259H
On to B2, for which the binding result is on record as “binds”.
